From patent publication EP4328238A1 (Ustav organicke chemie a biochemie AV CR, v.v.i., dated 2024)

Legend:
[1] = molecular target: His-C3d N1134A (human) (UniProt P01024); experiment: SPR; ISG65-Avi immobilised, C3d mutant as analyte; the table prints 25
[2] = molecular target: His-C3d N1134A (human) (UniProt P01024); experiment: SPR (BIAcore T200, 25°C); biotinylated ISG65-Avi immobilised, C3d N1134A as analyte
[3] = molecular target: Human C3(H2O) (human) (UniProt P01024); experiment: SPR (BIAcore T200, 25°C); biotinylated ISG65-Avi immobilised, C3(H2O) as analyte
[4] = molecular target: Human C3(H2O) (human) (UniProt P01024); experiment: SPR (BIAcore T200, 25°C); biotinylated ISG65-Avi immobilised, C3(H2O) as analyte; column koff1
[5] = molecular target: His-C3d N1134A (human) (UniProt P01024); experiment: SPR (BIAcore T200, 25°C); biotinylated ISG65-Avi immobilised, C3d N1134A as analyte; column kon1
[6] = molecular target: His-C3d N1134A (human) (UniProt P01024); experiment: SPR (BIAcore T200, 25°C); biotinylated ISG65-Avi immobilised, C3d N1134A as analyte; column koff1
[7] = molecular target: His-C3d N1134A (human) (UniProt P01024); experiment: SPR (BIAcore T200, 25°C); biotinylated ISG65-Avi immobilised, C3d N1134A as analyte; relative to wild type
[8] = molecular target: Human C3(H2O) (human) (UniProt P01024); experiment: SPR (BIAcore T200, 25°C); biotinylated ISG65-Avi immobilised, C3(H2O) as analyte; column kon1
[9] = molecular target: T1, Native human complement factor 3 (C3) (human, UniProt P01024 23-667; P01024 672-1663); experiment: SPR (BIAcore T200, 25°C); biotinylated ISG65-Avi immobilised, C3 as analyte; column koff1
T1 construct: Purified from normal human serum (Sigma-Aldrich); also called native C3; human C3
T1 sequence (P01024 23-667 limits assumed, chain 1 of 2): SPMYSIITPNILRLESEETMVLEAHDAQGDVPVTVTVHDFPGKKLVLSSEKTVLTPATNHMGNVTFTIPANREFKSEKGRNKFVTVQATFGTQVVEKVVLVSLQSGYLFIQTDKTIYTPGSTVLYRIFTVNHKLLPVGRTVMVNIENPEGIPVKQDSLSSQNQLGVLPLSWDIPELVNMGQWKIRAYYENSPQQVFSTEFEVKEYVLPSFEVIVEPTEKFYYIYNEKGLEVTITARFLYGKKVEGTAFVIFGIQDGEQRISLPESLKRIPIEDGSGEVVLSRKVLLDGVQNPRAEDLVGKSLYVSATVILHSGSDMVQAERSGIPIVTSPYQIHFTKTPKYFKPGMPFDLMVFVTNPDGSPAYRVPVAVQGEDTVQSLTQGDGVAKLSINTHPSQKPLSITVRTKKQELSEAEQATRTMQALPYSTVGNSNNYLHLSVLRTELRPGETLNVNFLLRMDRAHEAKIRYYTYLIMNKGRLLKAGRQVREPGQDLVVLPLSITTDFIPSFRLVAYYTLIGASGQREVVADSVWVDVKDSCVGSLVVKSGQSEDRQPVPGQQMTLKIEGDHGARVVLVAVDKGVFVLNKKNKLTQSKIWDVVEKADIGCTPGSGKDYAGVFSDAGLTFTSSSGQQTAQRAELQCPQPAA
T1 sequence (P01024 672-1663 limits assumed, chain 2 of 2): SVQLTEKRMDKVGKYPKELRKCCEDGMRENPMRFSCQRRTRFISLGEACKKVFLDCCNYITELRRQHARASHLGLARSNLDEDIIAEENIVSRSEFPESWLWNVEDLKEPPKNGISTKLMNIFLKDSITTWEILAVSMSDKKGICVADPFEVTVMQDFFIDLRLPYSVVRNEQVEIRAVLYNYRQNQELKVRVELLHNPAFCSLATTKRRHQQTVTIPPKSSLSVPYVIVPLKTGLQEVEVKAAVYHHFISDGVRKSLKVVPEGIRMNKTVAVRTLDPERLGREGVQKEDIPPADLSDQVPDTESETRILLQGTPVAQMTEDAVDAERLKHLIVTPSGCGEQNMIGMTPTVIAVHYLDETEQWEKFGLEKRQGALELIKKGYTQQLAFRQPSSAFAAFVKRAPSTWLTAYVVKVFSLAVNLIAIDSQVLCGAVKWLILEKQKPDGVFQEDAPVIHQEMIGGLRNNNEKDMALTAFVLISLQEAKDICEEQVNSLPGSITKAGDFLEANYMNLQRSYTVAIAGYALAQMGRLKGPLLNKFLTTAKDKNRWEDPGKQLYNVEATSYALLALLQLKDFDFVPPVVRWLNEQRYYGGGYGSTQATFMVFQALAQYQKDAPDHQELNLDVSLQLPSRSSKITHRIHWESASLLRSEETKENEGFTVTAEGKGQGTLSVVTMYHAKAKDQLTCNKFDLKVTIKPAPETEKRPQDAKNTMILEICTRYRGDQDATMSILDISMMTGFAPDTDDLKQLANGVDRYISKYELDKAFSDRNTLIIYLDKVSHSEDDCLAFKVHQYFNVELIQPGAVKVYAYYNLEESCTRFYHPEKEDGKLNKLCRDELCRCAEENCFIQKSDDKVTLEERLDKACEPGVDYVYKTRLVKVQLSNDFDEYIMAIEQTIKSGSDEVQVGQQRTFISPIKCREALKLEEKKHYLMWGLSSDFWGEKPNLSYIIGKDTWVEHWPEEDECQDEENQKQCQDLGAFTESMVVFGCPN

[10] = molecular target: T2, His-C3d L1109A (human, UniProt P01024 996-1303); experiment: SPR (BIAcore T200, 25°C); biotinylated ISG65-Avi immobilised, C3d L1109A as analyte
T2 construct: domain: C3d; not shown: His-tag
T2 sequence (P01024 996-1303 L1109A limits assumed): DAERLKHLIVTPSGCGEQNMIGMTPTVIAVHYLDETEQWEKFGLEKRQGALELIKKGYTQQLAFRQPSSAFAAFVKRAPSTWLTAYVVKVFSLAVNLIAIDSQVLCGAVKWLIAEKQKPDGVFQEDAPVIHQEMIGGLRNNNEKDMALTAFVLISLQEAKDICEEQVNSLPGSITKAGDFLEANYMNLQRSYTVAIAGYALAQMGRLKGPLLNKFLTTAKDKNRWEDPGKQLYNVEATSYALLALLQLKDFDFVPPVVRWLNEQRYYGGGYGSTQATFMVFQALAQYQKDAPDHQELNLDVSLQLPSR

[11] = molecular target: T3, Human C3a (ANA domain of C3 when released) (human, UniProt P01024 672-748); experiment: SPR (BIAcore T200, 25°C); biotinylated ISG65-Avi immobilised, C3a as analyte
T3 construct: domain: C3a; also called free C3a; recombinant C3a
T3 sequence (P01024 672-748 limits assumed): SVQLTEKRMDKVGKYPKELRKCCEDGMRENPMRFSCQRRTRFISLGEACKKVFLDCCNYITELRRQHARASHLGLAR

[12] = molecular target: T1, Native human complement factor 3 (C3); experiment: SPR (BIAcore T200, 25°C); biotinylated ISG65-Avi immobilised, C3 as analyte
[13] = molecular target: T4, Human C3b (human, UniProt P01024 749-1663; P01024 23-667); experiment: SPR (BIAcore T200, 25°C); biotinylated ISG65-Avi immobilised, C3b as analyte; column kon1
T4 construct: domain: α-chain of C3b;domain: β-chain of C3b
T4 sequence (P01024 749-1663 limits assumed, chain 1 of 2): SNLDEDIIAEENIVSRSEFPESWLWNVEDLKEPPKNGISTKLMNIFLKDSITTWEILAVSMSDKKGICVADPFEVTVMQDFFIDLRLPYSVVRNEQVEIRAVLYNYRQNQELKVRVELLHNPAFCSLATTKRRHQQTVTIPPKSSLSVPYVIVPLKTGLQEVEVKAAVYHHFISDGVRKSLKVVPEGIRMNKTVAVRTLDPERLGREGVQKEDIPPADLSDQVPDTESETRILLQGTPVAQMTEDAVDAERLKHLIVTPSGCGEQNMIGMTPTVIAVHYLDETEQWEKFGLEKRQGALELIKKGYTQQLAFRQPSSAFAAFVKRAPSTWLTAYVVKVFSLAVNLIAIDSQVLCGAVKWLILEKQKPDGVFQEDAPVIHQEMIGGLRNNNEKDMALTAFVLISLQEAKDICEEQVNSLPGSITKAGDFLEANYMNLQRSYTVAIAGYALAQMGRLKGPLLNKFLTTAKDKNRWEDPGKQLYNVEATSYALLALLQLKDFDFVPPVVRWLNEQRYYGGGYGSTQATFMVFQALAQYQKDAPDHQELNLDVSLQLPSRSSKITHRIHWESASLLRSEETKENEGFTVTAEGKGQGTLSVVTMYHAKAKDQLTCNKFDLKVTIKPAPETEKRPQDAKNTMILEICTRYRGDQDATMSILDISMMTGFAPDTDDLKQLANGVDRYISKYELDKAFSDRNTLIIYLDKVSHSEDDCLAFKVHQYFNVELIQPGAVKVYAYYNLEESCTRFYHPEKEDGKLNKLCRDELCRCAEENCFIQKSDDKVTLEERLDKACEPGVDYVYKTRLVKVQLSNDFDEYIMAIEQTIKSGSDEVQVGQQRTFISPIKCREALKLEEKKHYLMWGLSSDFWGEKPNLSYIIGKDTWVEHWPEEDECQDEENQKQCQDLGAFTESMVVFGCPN
T4 sequence (P01024 23-667 limits assumed, chain 2 of 2): as the sequence (P01024 23-667 limits assumed, chain 1 of 2) above

[14] = molecular target: T5, His-C3d (recombinant human C3d, thioester domain of C3) (human, UniProt P01024 996-1303); experiment: SPR (BIAcore T200, 25°C); biotinylated ISG65-Avi immobilised, C3d Wt as analyte
T5 construct: domain: C3d; also called C3d Wt; TED; not shown: His-tag
T5 sequence (P01024 996-1303 limits assumed): as the sequence (P01024 996-1303 L1109A limits assumed) above, with A114L counted along it

[15] = molecular target: T5, His-C3d (recombinant human C3d, …); experiment: SPR (BIAcore T200, 25°C); biotinylated ISG65-Avi immobilised, C3d Wt as analyte; column kon1
[16] = molecular target: T5, His-C3d (recombinant human C3d, …); experiment: SPR (BIAcore T200, 25°C); biotinylated ISG65-Avi immobilised, C3d Wt as analyte; column koff1
[17] = molecular target: T1, Native human complement factor 3 (C3); experiment: SPR (BIAcore T200, 25°C); biotinylated ISG65-Avi immobilised, C3 as analyte; column kon1
[18] = molecular target: T4, Human C3b; experiment: SPR (BIAcore T200, 25°C); biotinylated ISG65-Avi immobilised, C3b as analyte
[19] = molecular target: T4, Human C3b; experiment: SPR (BIAcore T200, 25°C); biotinylated ISG65-Avi immobilised, C3b as analyte; column koff1
[20] = molecular target: T6, His-C3d E1110A (human, UniProt P01024 996-1303); experiment: SPR (BIAcore T200, 25°C); biotinylated ISG65-Avi immobilised, C3d E1110A as analyte
T6 construct: domain: C3d; not shown: His-tag
T6 sequence (P01024 996-1303 E1110A limits assumed): as the sequence (P01024 996-1303 L1109A limits assumed) above, with A114L, E115A counted along it

[21] = molecular target: T7, His-C3d-Avi (N-terminal His-tag, C-terminal Avi-tag, biotinylated) (human, UniProt P01024 996-1303, site-specific biotin on the C-terminal Avi-tag); experiment: SPR (BIAcore T200, 25°C); biotinylated C3d-Avi immobilised, ISG65 Y293A as analyte
T7 construct: domain: C3d; Immobilised ligand in SPR for the ISG65 mutants; not shown: N-terminal His-tag; C-terminal Avi-tag
T7 sequence (P01024 996-1303 limits assumed): as the sequence (P01024 996-1303 L1109A limits assumed) above, with A114L counted along it

His-C3d N1134A (human), sequence (P01024 996-1303, stated change not applied): as the sequence (P01024 996-1303 L1109A limits assumed) above, with A114L counted along it

Molecule: His-ISG65 18-363-Avi (N-terminal hexa-histidine tag, C-terminal Avi-tag, biotinylated) (receptor)
- binding affinity (% of wild type) [1]: 24%
- Kd [2]: 28.6 nM
- Kd [3]: 18 nM
- koff [4]: 0.017 s⁻¹
- kon [5]: 1.89e+06 M⁻¹ s⁻¹
- koff [6]: 0.0542 s⁻¹
- ISG65 binding (%) [7]: 25%
- kon [8]: 942000 M⁻¹ s⁻¹

B1: His-ISG65 18-363-Avi (N-terminal hexa-histidine tag, C-terminal Avi-tag, biotinylated) (receptor)
chain: LLVIGSEDNRVPGDKKLTKEGAAALCKMKHLADKVAKERSQELKDRTQNFAGYIEFELYRIDYWLEKLNGPKGRKDGYAKLSDSDIEKVKEIFNKAKDGITKQLPEAKKAGEEAGKLHTEVKKAAENARGQDLDDDTAKSTGLYRVLNWYCITKEERHNATPNCDGIQFRKHYLSVNRSAIDCSSTSYEENYDWSANALQVALNSWEDVKPKKLESAGSDKNCNIGQSSESHPCTMTEEWQTPYKETVEKLRELEDAYQRGKKAHDAMLGYANTAYAVNTKVEQEKPLTEVIAAAKEAGKKGAKIIIPAAAPATPTNSTKNDDSAPTEHVDRGIATNETQVEVGID
modifications: site-specific biotin on the C-terminal Avi-tag
notes: Immobilised ligand in SPR on a CAP chip; also called ISG65-Avi; biotinylated ISG65; not shown: N-terminal hexa-histidine tag of pET15b construct; C-terminal Avi-tag
- koff [9]: 0.0543 s⁻¹
- Kd [10]: 52.9 nM
- Kd [11]: 18100 nM
- Kd [12]: 129 nM
- kon [13]: 262000 M⁻¹ s⁻¹
- Kd [14]: 7.2 nM
- kon [15]: 5.24e+06 M⁻¹ s⁻¹
- koff [16]: 0.0379 s⁻¹
- kon [17]: 81800 M⁻¹ s⁻¹
- Kd [18]: 80.9 nM
- koff [19]: 0.0212 s⁻¹
- Kd [20]: 15.7 nM

B2: His-ISG65 18-363 Y293A (receptor)
chain: MGSSHHHHHHSSGLVPRGSHMLLVIGSEDNRVPGDKKLTKEGAAALCKMKHLADKVAKERSQELKDRTQNFAGYIEFELYRIDYWLEKLNGPKGRKDGYAKLSDSDIEKVKEIFNKAKDGITKQLPEAKKAGEEAGKLHTEVKKAAENARGQDLDDDTAKSTGLYRVLNWYCITKEERHNATPNCDGIQFRKHYLSVNRSAIDCSSTSYEENYDWSANALQVALNSWEDVKPKKLESAGSDKNCNIGQSSESHPCTMTEEWQTPYKETVEKLRELEDAYQRGKKAHDAMLGYANTAAAVNTKVEQEKPLTEVIAAAKEAGKKGAKIIIPAAAPATPTNSTKNDDSAPTEHVDRGIATNETQVEVGID
notes: also called ISG65 Y293A
- binding result [21]: no binding (tested: ISG65 analyte 1.5-100 nM)
